Assay results from patent US20190023745A1.

Columns and labels:
[1] = molecular target: Zika virus MR766 envelope (E) protein, on virus particles (Zika virus strain MR766) (UniProt Q32ZE1); experiment: cell-based or functional assay
[2] = molecular target: Zika virus H/PF/2013 envelope (E) protein, on virus particles (Zika virus strain H/PF/2013); experiment: cell-based or functional assay

Substance	EC50, neutralization in Vero cells [1] [ng/mL]	PRNT50 (plaque reduction neutralization test, BHK-21 cells) [2] [µg/mL]
EDE1 C8 monoclonal antibody	0.89	–
EDE1 C10 monoclonal antibody	0.34	0.024
